Laboratory results reported in the supplement of paper PMC7125110.
± gives the standard error. For part of these data: Fewer inactive variants are shown than the library holds.

B1: glmS ribozyme (parent)
chain: AUAAAAGCGCCAGAACUACAGAAAUGUAGUUGACGAGGAGGAGGUUUAUCGAAUUUUCGGCGGAUGCCUCCAAA

Legend:
Details in all cases: with glucosamine-6-phosphate
glucosamine-6-phosphate [1] = variants of: B1; test: KM; higher = weaker cofactor use; RNA array
How it was run: (§1)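 Sequenced MiSeq chips were the platform: E. coli RNA polymerase transcribed barcoded ribozyme variants on them in situ, and a hybridised Cy3 probe tracked these at 37 °C. After glucosamine-6-phosphate (40 μM to 10 mM) in HEPES/KCl/Mg(OAc)2 buffer was flowed in, tiles were imaged over ~14 h. Signals normalised to baseline and to non-cleaving reference variants were reduced to per-tile medians and fit to one- or two-exponential decays to obtain kobs. kcat and KM were derived through weighted Michaelis–Menten fits across concentrations.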

glucosamine-6-phosphate [2] = variants of: B1; test: self-cleavage kobs at 40 uM GlcN6P; higher = faster cleavage; RNA array
How it was run: as §1

glucosamine-6-phosphate [3] = variants of: B1; test: self-cleavage kobs at 160 uM GlcN6P; higher = faster cleavage; RNA array
How it was run: as §1

glucosamine-6-phosphate [4] = variants of: B1; test: self-cleavage kobs at 640 uM GlcN6P; higher = faster cleavage; RNA array
How it was run: as §1

glucosamine-6-phosphate [5] = variants of: B1; test: self-cleavage kobs at 2500 uM GlcN6P; higher = faster cleavage; RNA array
How it was run: as §1

glucosamine-6-phosphate [6] = variants of: B1; test: self-cleavage kobs at 10000 uM GlcN6P; higher = faster cleavage; RNA array
How it was run: as §1

glucosamine-6-phosphate [7] = variants of: B1; test: kcat; higher = faster cleavage; RNA array
How it was run: as §1

Row | Variant | KM (glucosamine-6-phosphate [1]) [µM] | self-cleavage kobs at 40 uM GlcN6P (glucosamine-6-phosphate [2]) [s⁻¹] | self-cleavage kobs at 160 uM GlcN6P (glucosamine-6-phosphate [3]) [s⁻¹] | self-cleavage kobs at 640 uM GlcN6P (glucosamine-6-phosphate [4]) [s⁻¹] | self-cleavage kobs at 2500 uM GlcN6P (glucosamine-6-phosphate [5]) [s⁻¹] | self-cleavage kobs at 10000 uM GlcN6P (glucosamine-6-phosphate [6]) [s⁻¹] | kcat (glucosamine-6-phosphate [7]) [s⁻¹]
1 | C16U G66A | 1520 ± 640 | 0.000448 ± 9.7e-05 | 0.00133 ± 0.00023 | 0.00417 ± 0.00068 | 0.00873 ± 0.0019 | 0.0329 ± 0.014 | 
2 | A6G G51U U57C |  | < 1e-05 |  |  |  | < 1e-05 | 
3 | G37U U54C | 2230 ± 960 |  |  |  |  |  | 
4 | A6C A39G G41A U46A A64G |  | < 1e-05 |  |  |  | < 1e-05 | 
5 | A6C C11G A12G C70U |  | < 1e-05 |  |  |  |  | 
6 | U69C | 201 ± 40 | 0.000631 ± 3.9e-05 | 0.00145 ± 0.00011 | 0.00268 ± 0.0002 | 0.00383 ± 0.00039 |  | 0.00361 ± 0.00043
7 | G41U A52C | 3260 ± 480 |  |  |  |  |  | 
8 | A6U C11U G32U |  | < 1e-05 |  |  |  | < 1e-05 | 
9 | A6G U31C G41U A52U |  | < 1e-05 |  |  |  | < 1e-05 | 
10 | A6U A36G |  | < 1e-05 | < 1e-05 | < 1e-05 |  | < 1e-05 | 
11 | C67A C68A |  |  |  | 5.08e-05 ± 1.2e-05 | 2.46e-05 ± 1e-05 | 3.61e-05 ± 9.6e-06 | 3.56e-05 ± 6.8e-06
12 | A6G A15U G59A |  | < 1e-05 |  |  | < 1e-05 | < 1e-05 | 
13 | A6G A14U U55G C68G |  | < 1e-05 |  |  |  |  | 
14 | A6C U46A U49A |  | < 1e-05 | < 1e-05 | < 1e-05 | < 1e-05 |  | 
15 | A15U U46G G51U | 56.5 ± 15 |  |  |  |  |  | 
16 | G66U C67G | 2210 ± 730 | 3e-05 ± 7.9e-06 | 4.82e-05 ± 7.9e-06 | 0.000262 ± 5.1e-05 | 0.000418 ± 4.7e-05 | 0.000687 ± 6.4e-05 | 0.000827 ± 0.00015
17 | C67U C70U C71U | 339 ± 160 |  |  |  |  |  | 1.14e-05 ± 1.2e-06
18 | A6G G35A A39C G62C U65G C67A |  | < 1e-05 |  |  |  |  | 
19 | A6G C16G G29C A39G G43C U47G G51U C61A |  | < 1e-05 |  |  |  | < 1e-05 | 

Row | Variant | KM (glucosamine-6-phosphate [1]) [µM] | self-cleavage kobs at 40 uM GlcN6P (glucosamine-6-phosphate [2]) [s⁻¹] | self-cleavage kobs at 160 uM GlcN6P (glucosamine-6-phosphate [3]) [s⁻¹] | self-cleavage kobs at 640 uM GlcN6P (glucosamine-6-phosphate [4]) [s⁻¹] | self-cleavage kobs at 2500 uM GlcN6P (glucosamine-6-phosphate [5]) [s⁻¹] | self-cleavage kobs at 10000 uM GlcN6P (glucosamine-6-phosphate [6]) [s⁻¹] | kcat (glucosamine-6-phosphate [7]) [s⁻¹]
20 | A6U A48U C70U |  | < 1e-05 |  |  |  |  | 
21 | C71G | 1460 ± 470 | 0.000157 ± 1.8e-05 | 0.00041 ± 3.6e-05 | 0.000926 ± 4.6e-05 | 0.00218 ± 0.00013 | 0.00313 ± 0.00019 | 0.0034 ± 0.00063
22 | C71A | 2490 ± 360 | 0.00092 ± 0.0004 | 0.00104 ± 7.6e-05 | 0.00298 ± 0.00014 | 0.00761 ± 0.00039 | 0.0124 ± 0.0006 | 0.0153 ± 0.0014
23 | A6C G35U A36C |  | < 1e-05 |  |  | < 1e-05 | < 1e-05 | 
24 | G38U U65G | 107 ± 46 |  |  |  |  |  | 
25 | A6G G32U C34U |  | < 1e-05 |  | < 1e-05 | < 1e-05 | < 1e-05 | 
26 | U2A A3U C50A |  | < 1e-05 |  |  |  | 3.38e-05 ± 1.2e-05 | 
27 | A6C A33U C58G G60U C71A |  | < 1e-05 |  |  |  |  | 
28 | A6C G62C |  | < 1e-05 | < 1e-05 | < 1e-05 | < 1e-05 | < 1e-05 | 
29 | C67U | 1910 ± 390 | 0.000527 ± 1.7e-05 | 0.0016 ± 0.00012 | 0.00529 ± 0.0002 | 0.0117 ± 0.00055 | 0.0215 ± 0.00087 | 0.0229 ± 0.0033
30 | C67A | 1730 ± 380 | 0.000434 ± 1.5e-05 | 0.00132 ± 8.4e-05 | 0.004 ± 0.00015 | 0.0101 ± 0.00044 | 0.0155 ± 0.00076 | 0.0168 ± 0.0027
31 | C67G | 2390 ± 300 | 3.28e-05 ± 1e-06 | 0.000109 ± 2.8e-06 | 0.00046 ± 4e-05 | 0.00108 ± 3.9e-05 | 0.00145 ± 3.7e-05 | 0.00185 ± 0.00017
32 | A6G A39G C68A C70G |  | < 1e-05 |  |  |  |  | 
33 | A6C G43U |  | < 1e-05 | < 1e-05 | < 1e-05 | < 1e-05 | < 1e-05 | 
34 | A6C G43C |  | < 1e-05 | < 1e-05 | < 1e-05 |  | < 1e-05 | 
35 | G66U C71A | 1020 ± 250 |  | 3.4e-05 ± 1e-05 | 8.54e-05 ± 8.7e-06 | 0.000205 ± 2.4e-05 | 0.000202 ± 1.9e-05 | 0.000234 ± 2.4e-05
36 | G66U C71U | 2150 ± 760 | 3.7e-05 ± 8.7e-06 | 0.000107 ± 1.4e-05 | 0.000471 ± 4.1e-05 | 0.00174 ± 0.00026 | 0.0014 ± 0.00014 | 0.00186 ± 0.00045
37 | A6G G35A |  | < 1e-05 | < 1e-05 | < 1e-05 | < 1e-05 | < 1e-05 | 
